Experimental data published in article PMC10354202 (2023).

Legend:
Assay in all cases: magnetic tweezers
talin VBS [1] = target: T1, talin VBS (UniProt Q9Y490, talin stretched at low force (up to ~9-10 pN))
T1 chain: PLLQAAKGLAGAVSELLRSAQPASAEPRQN

talin VBS [2] = target: T2, talin VBS (UniProt Q9Y490, talin stretched at low force, matured complex)
T2 chain: T1 chain

talin VBS [3] = target: T3, talin VBS (UniProt Q9Y490, talin stretched above ~10 pN)
T3 chain: T1 chain

- Kd (talin VBS [1]): ~200 pM
- Kd (talin VBS [2]): ~4 pM
- Kd (talin VBS [3]): ~5000 pM
B1: vinculin (protein)
chain: MPVFHTRTIESILEPVAQQISHLVIMHEEGEVDGKAIPDLTAPVAAVQAAVSNLVRVGKETVQTTEDQILKRDMPPAFIKVENACTKLVQAAQMLQSDPYSVPARDYLIDGSRGILSGTSDLLLTFDEAEVRKIIRVCKGILEYLTVAEVVETMEDLVTYTKNLGPGMTKMAKMIDERQQELTHQEHRVMLVNSMNTVKELLPVLISAMKIFVTTKNSKNQGIEEALKNRNFTVEKMSAEINEIIRVLQLTSWDEDAWASKDTEAMKRALASIDSKLNQAKGWLRDPSASPGDAGEQAIRQILDEAGKVGELCAGKERREILGTCKMLGQMTDQVADLRARGQGSSPVAMQKAQQVSQGLDVLTAKVENAARKLEAMTNSKQSIAKKIDAAQNWLADPNGGPEGEEQIRGALAEARKIAELCDDPKERDDILRSLGEISALTSKLADLRRQGKGDSPEARALAKQVATALQNLQTKTNRAVANSRPAKAAVHLEGKIEQAQRWIDNPTVDDRGVGQAAIRGLVAEGHRLANVMMGPYRQDLLAKCDRVDQLTAQLADLAARGEGESPQARALASQLQDSLKDLKARMQEAMTQEVSDVFSDTTTPIKLLAVAATAPPDAPNREEVFDERAANFENHSGKLGATAEKAAAVGTANKSTVEGIQASVKTARELTPQVVSAARILLRNPGNQAAYEHFETMKNQWIDNVEKMTGLVDEAIDTKSLLDASEEAIKKDLDKCKVAMANIQPQMLVAGATSIARRANRILLVAKREVENSEDPKFREAVKAASDELSKTISPMVMDAKAVAGNISDPGLQKSFLDSGYRILGAVAKVREAFQPQEPDFPPPPPDLEQLRLTDELAPPKPPLPEGEVPPPRPPPPEEKDEEFPEQKAGEVINQPMMMAARQLHDEARKWSSKPGIPAAEVGIGVVAEADAADAAGFPVPPDMEDDYEPELLLMPSNQPVNQPILAAAQSLHREATKWSSKGNDIIAAAKRMALLMAEMSRLVRGGSGTKRALIQCAKDIAKASDEVTRLAKEVAKQCTDKRIRTNLLQVCERIPTISTQLKILSTVKATMLGRTNISDEESEQATEMLVHNAQNLMQSVKETVREAEAASIKIRTDAGFTLRWVRKTPWYQ
